The values that follow are results of earlier work, collected in paper PMC8093553.

The data set deals with transferrin receptor (Homo sapiens) (UniProt P02786).
Chain of transferrin receptor (Homo sapiens) (P02786 101-760): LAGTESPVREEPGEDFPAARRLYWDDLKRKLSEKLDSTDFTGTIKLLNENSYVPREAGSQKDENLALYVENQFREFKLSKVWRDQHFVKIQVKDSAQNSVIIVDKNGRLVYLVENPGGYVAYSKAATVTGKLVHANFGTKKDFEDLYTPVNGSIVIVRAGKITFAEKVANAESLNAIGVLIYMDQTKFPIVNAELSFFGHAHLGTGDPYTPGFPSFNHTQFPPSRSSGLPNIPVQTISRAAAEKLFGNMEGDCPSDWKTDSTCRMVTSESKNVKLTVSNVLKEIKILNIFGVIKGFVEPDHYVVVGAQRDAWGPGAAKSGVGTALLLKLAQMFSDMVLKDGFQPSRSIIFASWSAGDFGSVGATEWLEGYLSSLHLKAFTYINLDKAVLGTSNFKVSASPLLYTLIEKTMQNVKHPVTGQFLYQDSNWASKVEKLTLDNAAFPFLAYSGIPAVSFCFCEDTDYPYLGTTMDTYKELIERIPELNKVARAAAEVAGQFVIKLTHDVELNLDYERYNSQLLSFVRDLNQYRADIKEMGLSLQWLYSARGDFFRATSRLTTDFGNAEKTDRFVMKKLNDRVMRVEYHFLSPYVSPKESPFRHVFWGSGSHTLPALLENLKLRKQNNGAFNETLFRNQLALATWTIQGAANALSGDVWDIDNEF

Broadly, the Kd is the free concentration of one partner at which half of the binding sites on the other are occupied at equilibrium, for simple one-to-one binding. Take T7 peptide: the Kd is 10 nM.
